Reference: US20140243227A1, “CULTURE MEDIA FOR STEM CELLS” (Koninklijke Nederlandse Akademie van Wetenschappen, priority 2011, published 2014)

B1: Cyr61: growth factor (Peprotech) (protein, UniProt O00622 25-381, looked up)
CCN family member 1: TCPAACHCPLEAPKCAPGVGLVRDGCGCCKVCAKQLNEDCSKTQPCDHTKGLECNFGASSTALKGICRAQSEGRPCEYNSRIYQNGESFQPNCKHQCTCIDGAVGCIPLCPQELSLPNLGCPNPRLVKVTGQCCEEWVCDEDSIKDPMEDQDGLLGKELGFDASEVELTRNNELIAVGKGSSLKRLPVFGMEPRILYNPLQGQKCIVQTTSWSQCSKTCGTGISTRVTNDNPECRLVKETRICEVRPCGQPVYSSLKKGKKCSKTKKSPEPVRFTYAGCLSVKKYRPKYCGSCVDGRCCTPQLTRTVKMRFRCEDGETFSKNVMMIQSCKCNYNCPHANEAAFPFYRLFNDIHKFRD
B2: FGF10: human recombinant FGF10 (Peprotech) (protein, UniProt O15520 38-208, looked up)
Fibroblast growth factor 10: QALGQDMVSPEATNSSSSSFSSPSSAGRHVRSYNHLQGDVRWRKLFSFTKYFLKIEKNGKVSGTKKENCPYSILEITSVEIGVVAVKAINSNYYLAMNKKGKLYGSKEFNNDCKLKERIEENGYNTYASFNWQHNGRQMYVALNGKGAPRRGQKTRRKNTSAHFLPMVVHS
B3: RANK ligand: RANK ligand (RANKL), recombinant (protein, UniProt O14788 140-317, looked up)
Tumor necrosis factor ligand …: IRAEKAMVDGSWLDLAKRSKLEAQPFAHLTINATDIPSGSHKVSLSSWYHDRGWAKISNMTFSNGKLIVNQDGFYYLYANICFRHHETSGDLATEYLQLMVYVTKTSIKIPSSHTLMKGGSTKYWSGNSEFHFYSINVGGFFKLRSGEEISIEVSNPSLLDPDQDATYFGAFKVRDID
B4: GDNF: growth factor (Peprotech) (protein, UniProt P39905 78-211, looked up)
Glial cell line-derived …: SPDKQMAVLPRRERNRQAAAANPENSRGKGRRGQRGKNRGCVLTAIHLNVTDLGLGYETKEELIFRYCSGSCDAAETTYDKILKNLSRNRRLVSDKVGQACCRPIAFDDDLSFLDDNLVYHILRKHSAKRCGCI
B5: Follistatin: growth factor (Peprotech) (protein, UniProt P19883 30-344, looked up)
Follistatin: GNCWLRQAKNGRCQVLYKTELSKEECCSTGRLSTSWTEEDVNDNTLFKWMIFNGGAPNCIPCKETCENVDCGPGKKCRMNKKNKPRCVCAPDCSNITWKGPVCGLDGKTYRNECALLKARCKEQPELEVQYQGRCKKTCRDVFCPGSSTCVVDQTNNAYCVTCNRICPEPASSEQYLCGNDGVTYSSACHLRKATCLLGRSIGLAYEGKCIKAKSCEDIQCTGGKKCLWDFKVGRGRCSLCDELCPDSKSDEPVCASDNATYASECAMKEAACSSGVLLEVKHSGSCNSISEDTEEEEEDEDQDYSFPISSILEW
B6: BDNF: brain-derived neurotrophic factor (protein, UniProt P23560 19-247, looked up)
Neurotrophic factor BDNF …: APMKEANIRGQGGLAYPGVRTHGTLESVNGPKAGSRGLTSLADTFEHVIEELLDEDQKVRPNEENNKDADLYTSRVMLSSQVPLEPPLLFLLEEYKNYLDAANMSMRVRRHSDPARRGELSVCDSISEWVTAADKKTAVDMSGGTVTVLEKVPVSKGQLKQYFYETKCNPMGYTKEGCRGIDKRHWNSQCRTTQSYVRALTMDSKKRIGWRFIRIDTSCVCTLTIKRGR
B7: Noggin: BMP inhibitor (protein, UniProt Q13253 28-232, looked up)
Noggin: QHYLHIRPAPSDNLPLVDLIEHPDPIFDPKEKDLNETLLRSLLGGHYDPGFMATSPPEDRPGGGGGAAGGAEDLAELDQLLRQRPSGAMPSEIKGLEFSEGLAQGKKQRLSKKLRRKLQMWLWSQTFCPVLYAWNDLGSRFWPRYVKVGSCFSKRSCSVPEGMVCKPSKSVHLTVLRWRCQRRGGQRCGWIPIQYPIISECKCSC

Experiments:
human colon crypts = experiment: Screening of reagents for optimization of human intestinal organoids culture (plating efficiency); format: cell-based; settings: First screening (WENR)
[1] = system: Barrett's Esophagus epithelium; experiment: Culture of Barrett's esophagus (BE) organoids; settings: FGF10 added to HISC condition
mouse organoids = experiment: M cell development in organoids stimulated with RANK ligand; format: cell-based
Experimental: FIG. 48: A) Mouse organoids were cultured in the presence of different doses recombinant mouse RANKL for 72 h. mRNA expression levels for RANK, the transciption factor SpiB and the M cell-specific markers GP2 and AnnexinV were determined by qPCR.

pancreatic organoids = experiment: Effect of Noggin on gene expression of pancreatic organoids in expansion medium; settings: EGFRAN vs EGFRA medium

Row | Molecule | Activity (plating efficiency compared with control after 4 days culture) (human colon crypts) | also measured
1 | B1 | 0 | –
2 | B2 | 0 | Culture duration of BE organoids [1]: > 3 months
3 | B3 | – | Development of M cells (mouse organoids): can develop into M cells
4 | B4 | 0 | –
5 | B5 | 0 | –
6 | B6 | 0 | –
7 | B7 | – | Lgr5 expression relative to organoids cultured without Noggin (pancreatic organoids): 2 fold
